Measurements reported in paper PMC5347347, “A Localized Complex of Two Protein Oligomers Controls the Orientation of Cell Polarity” (mBio, 2017).

Key:
[1] = molecular target: PopZ (purified, His-tagged) (Caulobacter crescentus); experiment: SPR; PopZ immobilised on the sensor chip; 2-fold serial dilutions of WT SpmX or SpmX-L injected, with washes between injections
[2] = molecular target: SpmX E19R (purified) (Caulobacter crescentus); experiment: SEC; analytical size exclusion, Superdex 200 Increase 10/300 GL; apparent masses from a Bio-Rad gel filtration standard; purified SpmX variants alone
[3] = molecular target: SpmX-L (SpmX lysozyme-like domain alone, residues 1 to 155) (Caulobacter crescentus); experiment: MST; Atto-488-labelled SpmX* or SpmX-L* held constant at 25 nM; PopZ (max 10 μM), DivJ (max 40 μM) or unlabelled SpmX titrated in 2-fold serial dilutions; incubated 10 min at room temperature; fitted by the law of mass action
[4] = molecular target: SpmX (purified WT SpmX without its transmembrane region, residues 1 to 355) (Caulobacter crescentus); experiment: as above
[5] = molecular target: T1, DivJ histidine kinase (purified without its TM regions, His-tagged) (Caulobacter crescentus, UniProt Q03228 189-597); experiment: as above; conditions: both partners purified
T1 construct: DivJ histidine kinase, Caulobacter crescentus, purified without its TM regions (the cytoplasmic portion); Construct limits are expected in Text S1; also called cytoplasmic portion of DivJ; source: purified, His-tagged
T1 sequence (looked up): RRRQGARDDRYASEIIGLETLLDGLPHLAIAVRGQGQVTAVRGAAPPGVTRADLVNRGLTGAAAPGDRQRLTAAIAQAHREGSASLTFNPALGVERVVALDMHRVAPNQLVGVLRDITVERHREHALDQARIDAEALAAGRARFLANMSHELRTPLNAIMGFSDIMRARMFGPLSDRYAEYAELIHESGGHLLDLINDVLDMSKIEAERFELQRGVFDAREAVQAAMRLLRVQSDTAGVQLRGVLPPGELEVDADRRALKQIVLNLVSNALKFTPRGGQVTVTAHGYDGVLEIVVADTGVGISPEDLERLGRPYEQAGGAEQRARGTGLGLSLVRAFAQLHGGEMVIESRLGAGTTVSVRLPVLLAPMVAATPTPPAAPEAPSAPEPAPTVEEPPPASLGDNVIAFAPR

[6] = molecular target: the molecule itself; experiment: as above

Sequence of PopZ (purified, His-tagged) (Caulobacter crescentus) (A0A0H3C7Y4 entry or part of it): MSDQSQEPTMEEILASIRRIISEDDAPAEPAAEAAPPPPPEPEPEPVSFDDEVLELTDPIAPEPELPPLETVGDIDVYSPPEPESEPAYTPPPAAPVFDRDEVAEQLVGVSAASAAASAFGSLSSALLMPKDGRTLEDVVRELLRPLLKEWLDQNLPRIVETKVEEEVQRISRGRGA

For “SpmX-L (SpmX lysozyme-like domain alone, residues 1 to 155) (domain or fragment)”, the overall SPR response relative to WT SpmX at comparable concentrations [1] was 2 fold.

“SpmX E19R (purified) (domain or fragment)” showed a stoichiometry N [2] of 4.

“DivJ histidine kinase (purified without its TM regions, His-tagged) (from UniProt Q03228 189-597) (domain or fragment)” was tested, and the Kd [3] was 6300 nM.

With “PopZ (purified, His-tagged) (natural protein)” the Kd [4] was 600 nM and the Kd [3] was 120 nM.

B1: SpmX (purified WT SpmX without its transmembrane region, residues 1 to 355) (domain or fragment, Caulobacter crescentus, UniProt A0A0H3C9Y4 1-355, looked up)
chain: MKPRHQVSRAAVDLIKRFEGYRQKAAQLPDGRWTVGYGHTLTAREGASVSEKDAEALLLYDLISVAHSVNEHTYTPLNQNQFDALVCFAFNIGLDNFLRSGVLRRINEGSLLQAACAMEMWRKADFEGERIVIDALVRRRSAEKTLFLTPANGEWVPAPSPVLRPKVDYDASCAVPKQTPATVNTRTEGDRVIAQREEGLPLNVVVPEEDAPTATEQSAAAVAARLEAILPETPSAPASMAKPAMRQDDLGLPEPPAPTQPAAMEPAPVLFEAEPQPAPVEPPPAAPVEFTPFRLTPQASEQAEAPVEAPAPTRPAPSEPTLFGAPATGSSVFNLDGFSTSEDATVGVMDVPLVE
modifications: Atto-488 on lysine residues, approximately one dye molecule per protein (only the labelled copy SpmX* held constant in MST; unlabelled as titrant and in SPR, SEC and native gel)
notes: purified without the TM region, residues 1 to 355; predicted monomeric mass 40.1 kDa; Forms higher-order oligomers (void volume in SEC, ladder in native gel); Construct details are in Text S1; also called SpmX-ΔTM; source: purified, His-tagged
B1 gave a Kd [3] of 630 nM, a Kd [5] of 510 ± 90 nM and a Kd [6] of 360 ± 50 nM.
